Reference: article PMC10704431, “A complex with poly(A)-binding protein and EWS facilitates the transcriptional function of oncogenic ETS transcription factors in prostate cells” (The Journal of Biological Chemistry, 2023)

Molecular target: T1, His-PABPC1 (UniProt P11940 1-636)
T1 construct: also called purified His-PABPC1; source: E. coli BL21 (pET28a), purified with nickel-nitrilotriacetic acid beads
Assay: pull-down; purified GST-tagged EWS fragment on glutathione magnetic beads; purified His-tagged protein (PABPC1 or ERG) added, no third protein; immunoblot
Conditions: both partners purified

T1 sequence (P11940 whole entry): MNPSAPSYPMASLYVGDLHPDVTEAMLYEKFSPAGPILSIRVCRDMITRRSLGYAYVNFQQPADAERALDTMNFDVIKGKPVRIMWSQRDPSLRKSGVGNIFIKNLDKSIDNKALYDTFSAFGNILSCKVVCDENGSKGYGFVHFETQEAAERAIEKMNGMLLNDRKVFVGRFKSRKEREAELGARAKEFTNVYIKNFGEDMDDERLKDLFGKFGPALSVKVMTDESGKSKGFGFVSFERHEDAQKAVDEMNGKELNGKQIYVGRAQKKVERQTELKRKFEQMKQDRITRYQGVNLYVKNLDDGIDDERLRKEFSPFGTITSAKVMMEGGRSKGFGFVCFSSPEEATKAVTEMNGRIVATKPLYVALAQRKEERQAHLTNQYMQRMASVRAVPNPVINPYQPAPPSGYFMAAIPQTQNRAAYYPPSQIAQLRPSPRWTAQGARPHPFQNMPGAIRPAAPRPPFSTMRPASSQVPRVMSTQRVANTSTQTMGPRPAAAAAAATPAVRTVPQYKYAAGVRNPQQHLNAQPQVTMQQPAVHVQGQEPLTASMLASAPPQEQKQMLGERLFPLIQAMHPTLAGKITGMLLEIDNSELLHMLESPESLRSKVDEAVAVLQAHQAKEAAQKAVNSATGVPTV

binding result: binds
B1: GST-EWS 356 to 656 (ctEWS) (domain or fragment, UniProt Q01844 356-656, looked up)
chain: EDSDNSAIYVQGLNDSVTLDDLADFFKQCGVVKMNKRTGQPMIHIYLDKETGKPKGDATVSYEDPPTAKAAVEWFDGKDFQGSKLKVSLARKKPPMNSMRGGLPPREGRGMPPPLRGGPGGPGGPGGPMGRMGGRGGDRGGFPPRGPRGSRGNPSGGGNVQHRAGDWQCPNPGCGNQNFAWRTECNQCKAPKPEGFLPPPFPPPGGDRGRGGPGGMRGGRGGLMDRGGPGGMFRGGRGGDRGGFRGGRGMDRGGFGGGRRGGPGGPPGPLMEQMGGRRGGRGGPGKMDKGEHRQERRDRPY
notes: also called GST-ctEWS; C terminus of EWS; source: E. coli BL21 (pGEX-6p-2), purified with magnetic GSH beads
